Results published in the supplement of paper PMC12042874.
± gives the uncertainty stated by the source.

Experiment: amyloid nucleation score (Sup35N fusion, yeast selection) (log enrichment); library NNK1; higher = more nucleation; inactive = no reads after selection
Summary of the method: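 The nucleation score, computed with DiMSum, is the log enrichment of output over input reads, centred on the mode score of non-aggregating sequences. Sequences with under 100 input reads were dropped. Reads were generated by Illumina sequencing of plasmid inserts from psi-negative yeast with Sup35N fused to peptides of 20 random codons, induced with 100 μM copper sulfate for 24 hours and grown 7 days at 30°C on medium lacking adenine and uracil.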

Substance	amyloid nucleation score
FGASIGDGDFRVM	0.069 ± 0.53
YFVMGLIFGLKRLLVLAIRR	-0.53 ± 0.3
SPLSYAI	1.36 ± 0.58
VDGGMLSHYYYC	0.258 ± 0.23
TYRVLGWMYTCW	-0.809 ± 1.1
GSFYSGI	1.6 ± 0.76
YVLRSAMACLCDCVCESCGG	2.71 ± 0.12
YFIFFLSNVFASSVIILMYM	-0.071 ± 0.36
WQLLKKCP	-0.576 ± 0.41
MPKCSTLNTKVFRPMVWFSV	1.43 ± 0.29
CVRNGLGCYSCTRTFFTVIV	-0.409 ± 0.94
LREGTFRLRQVTTFRGYRPW	0.101 ± 0.37
NATNLENQKFTEDALKSPGW	-0.037 ± 0.71
KDHNVGMYLAGENCHLG	0.915 ± 0.9
QDYGDDLRSGFRGYLSSPQG	0.264 ± 0.32
WDKWI	0.418 ± 0.49
SNFGCFYCLLIPRNKKLGLG	1.67 ± 0.47
FRFVG	-1.53 ± 0.83
QYRRVSILSSVLLYCPNYCQ	-1.38 ± 2.7
WVVIR	-0.369 ± 1.5
NSIHFCGGGRLHSAKLDVSS	inactive
VVEFCCVQT	-1.53 ± 1.7
SRHFFTAKCQRPRFLWKSDR	-0.172 ± 1.2
CGMARWSRKSTELAHKQNVD	0.277 ± 0.61
TIIVDDGWRAYSRLS	0.22 ± 0.71
LQYSKGYDRVRDPILHTVN	0.389 ± 0.37

Substance	amyloid nucleation score
FTVLSVVSALQGGRHYPLMG	0.357 ± 0.33
DCEGLFI	0.864 ± 0.74
TNYDFMVCCFKPSMAYGKCM	-0.354 ± 0.63
SYLTGAEFFSTVRK	-0.745 ± 1.7
ECSRGVVIIWDMHVGGIDEC	1.79 ± 0.41
TFTCMPLLWLIFS	6.029 ± 0.057
LSIIVHNCGVLVVSMTLTVI	-0.172 ± 1.6
GIKFNWENLARVLESNVFF	1.53 ± 0.46
FVGSRRGLARVAEYGWLYHG	-0.464 ± 0.74
DLDRDAKLS	-1.43 ± 0.7
GCRGFLIPRMVYS	-0.398 ± 0.97
WETWYSVCYAIEIRSYKIRV	-1.3 ± 1
HVNSFKLGNGSFHFWY	0.634 ± 0.38
HSMVFNLEWFKARQDGDLN	1.5 ± 0.34
SCYDVIVRWDFFLQQFCKMQ	1.73 ± 0.12
TTLWLVPYVC	0.529 ± 0.58
FGCSSLCTLSTVEE	-1.21 ± 0.64
CSDRRS	-0.054 ± 0.53
THSSGINVTPPDVCSLITLT	-0.159 ± 1.2
VTLGHHDRSCFYEDSVQTRD	0.832 ± 0.49
NDVPLLWVISASCG	1.02 ± 0.44
AVEVYGVISRKLINVSDRIG	0.588 ± 0.69
TTYRCNVKYQYFMFNDIEFF	3.54 ± 0.21
SIQNPLNLVDNLPTT	-0.114 ± 0.21
TTLNEELYSLVVSRDWGDSN	inactive
SIGRLIPYFNQTPFCIS	-0.338 ± 0.23

Substance	amyloid nucleation score
SWFWHPYFCHRRIGSMGDGV	-0.017 ± 0.58
YVWMSDPSVTNHRGRLVDMG	5.02 ± 0.098
KCRVHSSN	-1.08 ± 1.5
CCLTILSIS	-0.281 ± 0.31
KVIRLIFRGY	0.871 ± 0.64
LTFMFTTRIA	-0.912 ± 1.1
NVGVMGFISASVWLFCWGIF	-0.783 ± 0.33
MSSLQG	-0.246 ± 1.1
CMLLNWIPMRRARLTTFVGK	0.433 ± 0.58
EYAVIGKS	-0.186 ± 1
SLESS	0.642 ± 0.62
WWSYRKCRALNRRFQFFSYR	inactive
IMKSFMDATYVSCFWILMPA	1.57 ± 0.53
GKERCDRMNKTLFLTFSYII	-0.281 ± 0.71
TKGFLSNGFLVWPVCIVILW	0.387 ± 0.77
CLLFTEMFTPLVEVAESM	-0.038 ± 0.48
SISVNTFLRPQLRWM	6.509 ± 0.061
IVGVYLSLNWRHPSRQGSGC	0.321 ± 0.19
SCLNNKSPSLI	-0.342 ± 0.25
ISFYTVRWLAAGRRFLISF	0.224 ± 0.59
RASTNLRSEIDVNNRGWLRW	1.32 ± 0.42
WLSSLARIWSRQMREYNS	0.64 ± 0.44
KYVIMLNLKSEL	3.4 ± 0.091
WTMNLLA	-0.048 ± 0.16
LGIVSCTSQNPNGVDTSIFG	0.117 ± 1.4
GYPWVV	0.993 ± 0.55

Substance	amyloid nucleation score
ADFKEFECDLARPLLGIKFL	0.054 ± 0.91
WITTMHNLHELNHRGPPPKL	-0.972 ± 1.8
LYIFLNEDDRFSMKQGVKGG	0.546 ± 0.83
SDDLGE	-0.301 ± 0.39
LRVYGGFLSMSCMRQRDGTV	0.151 ± 0.39
YYWRPIQVVCLLASCKRTWR	7.749 ± 0.064
CFRTFKFLI	2.49 ± 0.27
VWFFQNNVNFSDKQ	8.011 ± 0.045
RMDWWLEERASSSCDEELLT	inactive
CDVRLPF	0.249 ± 0.61
GTVSDGMSVIRVKGMRWSDY	1.13 ± 0.73
TVRLTRTRV	-0.474 ± 0.86
IMFYMTVDGCLSVEYIFR	-0.704 ± 0.42
LNHRGGLVDGFMAAGPRKFR	-0.793 ± 1
GSGKCVPGDTELAILGLKR	0.299 ± 0.7
VWRHGHNELRIRYAVSLYM	0.608 ± 0.46
TFSWYRLRSVMGLVGNAAMI	0.31 ± 0.61
HLIWL	-0.203 ± 1.1
PFSDSVARSDGCGVQRV	-0.444 ± 1.2
GNLVCGCVVLQIMHIERGMA	7.481 ± 0.046
RHGKASSSEWNAYRARDRGV	0.761 ± 0.82
RGIAVWCTN	0.286 ± 0.97
NDACYWEFCYADKLYFEWWF	1.04 ± 0.44
STVIHN	1.23 ± 0.84
QVRSSDSGLVNHFVNE	inactive
MVGVLVKVREKAVMGPGQFG	0.804 ± 0.29

Substance	amyloid nucleation score
IVFLVLRTANRMWNDYHAS	-0.075 ± 0.33
TWNNKFRPLVEHGYSAS	-0.526 ± 0.85
DIGRSAGRGVFVFSLLCNKW	3.63 ± 0.18
DLVYVSRLYISVNRYPSWFV	-0.462 ± 0.51
CHLIL	0.115 ± 0.34
RRGRLYSKLCLCRF	0.874 ± 0.92
RDTTTT	0.088 ± 0.33
DQFCDMPTWVLVMYKSRDFL	0.862 ± 0.55
ANWFL	0.479 ± 0.45
QFEFNFTKEDQYYEGFPVDW	-0.827 ± 1.7
MYLCVRLGSIKYFSGVLWS	0.056 ± 1.4
RLYFYGFRDSLWQFNLSEEH	7.619 ± 0.052
FWSLYD	0.003 ± 0.4
SVCGSLSC	1.16 ± 0.76
VRLFV	2.14 ± 0.65
FVGLVDN	0.051 ± 0.49
SLVSGSVGCLGRYQFRESKP	0.422 ± 0.45
SSCYLCLVVYSFTS	5.3 ± 0.072
GEERHAAYTNWFFLRCLLTY	-0.046 ± 0.65
SSSSVVLTRLQPTTGSYEMT	-0.667 ± 1.6
LYGFANYFRFMRYWTRNVVP	0.124 ± 1.2
RFIVM	0.304 ± 0.78
QRGAVVQDLAM	0.728 ± 0.71
QGKISGNRRSFFWW	-0.765 ± 0.44
MNRHGYHNIWWYTTSHGLYT	-1.05 ± 2.7
TSFVSETGFTWVCVFLVAGT	0.616 ± 1.1

Substance	amyloid nucleation score
FTCFATCCVLMNNVYYFMTL	5.085 ± 0.05
YCTTAIGSKSLVDIWHAGCS	-0.412 ± 1.2
GNMSPFKNLTFAEQLDAPRD	0.016 ± 1.2
LDVFPNYASRCTWAVDASFL	-0.703 ± 2.1
CCVDGLLLIERHVSLQYHSA	0.135 ± 0.63
DFEDTYSWKVTGEGATRKRW	0.166 ± 0.49
TLRSTWFRMCHTISA	0.441 ± 0.25
HQTEEISKSSFFQCNMVQCW	2.94 ± 0.071
MSAIVSHYLVHCKFQSGNSH	3.63 ± 0.12
FCVSQVFRDLS	-0.315 ± 0.37
TYARLLNCSAYSTTF	0.048 ± 0.55
TWIMIGDHFVAGLGYRERD	-0.893 ± 0.43
FADIKYLSTFG	-0.045 ± 0.37
SMGVMSCNMSWSSAWCVMCV	0.289 ± 0.42
YSMLQFWDRAAMSV	-0.294 ± 1.5
RLCPTVRVQRLMFFPVCPGP	-0.035 ± 0.42
TSCFGVWRHVLSRHSFRTSV	4.17 ± 0.13
SFIYTSPGFCWRDMFDWQVP	0.339 ± 0.32
VVMYRALTNHN	0.949 ± 0.59
TKVGFFQRLGYEQVCNCKML	0.244 ± 0.49
SKAKYGESSVWRVGLMGCF	-1.06 ± 0.83
CRVLWQWNSKLGCFAAALNL	-0.326 ± 0.63
DSCLSYFAILYFRLGFTRMW	inactive
KILVVGHRESIMCTDSYIMW	-0.294 ± 0.59
MRLSQGGPLRLPRVTFSRYC	0.027 ± 1.7
SFANVGSVGWAMYSGYTSRT	0.002 ± 0.84

Substance	amyloid nucleation score
LVMGMHYSLVV	0.125 ± 0.46
NFCLWHNWYVMSVLERGD	7.893 ± 0.071
GRPFALRWLDLGLLTDDPKG	-0.164 ± 0.32
ICVLKKFLVSIQSVIY	1.46 ± 0.74
YCIPTVRVFL	0.575 ± 0.66
GCCSEDFNINGVFCSCPKFC	7.157 ± 0.057
WKFALSLTRSDWAGHGPGHE	2.02 ± 0.16
FNWDGQFAVCMWKS	-0.221 ± 0.38
YCDRDLKNKVLSNV	-0.132 ± 0.42
SSDFY	-1.46 ± 1.3
VGLGYYNSSK	0.91 ± 0.51
RSVFEKNWVGCITEMTIWFA	-0.47 ± 0.73
RHVNEAESAGEGTGNYSRYS	-0.206 ± 0.41
SLWITFLPLIGLSAVRRRVR	-1.24 ± 1.4
RTFFRFKMSPWCINDYIMMR	0.222 ± 1.2
VDVHVGCRTIRL	0.034 ± 0.32
WASGRGSSVRIKQLPHDRQQ	-0.779 ± 0.43
RIIQGFLAM	-0.153 ± 1.4
MTMAFRKLFSVVRILMNMRL	0.059 ± 0.3
AYCGSWLQYL	-0.231 ± 0.76
